The values below are quoted from earlier work in paper PMC8363833.

The target in data set [1] is TEM1 beta-lactamase (Escherichia coli) (UniProt P62593).
The target of data set [2] is PC1 beta-lactamase (Staphylococcus aureus) (UniProt P00807).
Sequence of UniProt P00807 (P00807 25-281): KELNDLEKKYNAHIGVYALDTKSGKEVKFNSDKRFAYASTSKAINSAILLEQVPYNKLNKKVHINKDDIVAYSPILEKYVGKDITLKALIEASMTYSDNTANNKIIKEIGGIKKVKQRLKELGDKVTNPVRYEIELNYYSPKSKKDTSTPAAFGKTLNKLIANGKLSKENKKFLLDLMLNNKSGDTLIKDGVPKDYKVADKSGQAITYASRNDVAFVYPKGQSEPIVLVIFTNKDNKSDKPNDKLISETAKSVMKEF

Sequence of UniProt P62593 (P62593 24-286): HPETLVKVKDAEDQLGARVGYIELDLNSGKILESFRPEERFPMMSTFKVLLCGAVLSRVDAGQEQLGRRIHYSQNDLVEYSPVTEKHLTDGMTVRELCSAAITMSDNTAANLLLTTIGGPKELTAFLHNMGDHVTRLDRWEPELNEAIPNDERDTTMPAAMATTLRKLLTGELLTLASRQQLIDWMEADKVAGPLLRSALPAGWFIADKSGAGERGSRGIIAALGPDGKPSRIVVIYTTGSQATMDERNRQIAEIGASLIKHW

As usually defined, the Kd is a measure of binding affinity in units of concentration. BLIP (from UniProt P35804): the Kd in data set [1] was 1.3 nM; in data set [2] it was 380 nM.
